Experimental data as given in patent US20260242504A1 (CHIOME BIOSCIENCE, published 2026).

B1: 53L10-M13 (other)
chain 1: QVQLVQSGAEVKKPGASVKVSCKASGYSFTSYYMHWVKQSPGQGLEWIGRINPNNGVTLYNQKFKDRVTMTRDTSISTAYMELSRLRSDDTAVYYCARSTMITNYVMDYWGQGTLVTVSSASTKGPSVFPLAPSSKSTSGGTAALGCLVKDYFPEPVTVSWNSGALTSGVHTFPAVLQSSGLYSLSSVVTVPSSSLGTQTYICNVNHKPSNTKVDKKVEPKSCDKTHTGPGGGSPGQVQLVQSGAELKKPGASVKVSCKASGYTFTRYTMHWVRQAPGQCLEWMGYINPSRGYTNYNQKFKDKATLTADKSTSTAYMELRSLRSDDTAVYYCARYYDDHYSLDYWGQGTLVTVSSASGGGGSGGGGSGGGGSAGDIQLTQSPSILSASVGDRVTITCRASSSVSYMNWYQQKPGKAPKRWIYDTSKVASGVPYRFSGSGSGTEYTLTISSMQPEDFATYYCQQWSSNPLTFGCGTKVEIKSG
chain 2: not shown
notes: also called 53L10 mutant; 53L0-M13
B2: 53G tribody (other)
chain 1: QVQLVQSGAEVKKPGASVKVSCKASGYSFTSYYMHWVKQSPGQGLEWIGRINPNNGVTLYNQKFKDRVTMTRDTSISTAYMELSRLRSDDTAVYYCARSTMITNYVMDYWGQGTLVTVSSASTKGPSVFPLAPSSKSTSGGTAALGCLVKDYFPEPVTVSWNSGALTSGVHTFPAVLQSSGLYSLSSVVTVPSSSLGTQTYICNVNHKPSNTKVDKKVEPKSCDKTHTGPGGGSPGQVQLVQSGAELKKPGASVKVSCKASGYTFTRYTMHWVRQAPGQCLEWMGYINPSRGYTNYNQKFKDKATLTADKSTSTAYMELRSLRSDDTAVYYCARYYDDHYSLDYWGQGTLVTVSSASGGGGSGGGGSGGGGSAGDIQLTQSPSILSASVGDRVTITCRASSSVSYMNWYQQKPGKAPKRWIYDTSKVASGVPYRFSGSGSGTEYTLTISSMQPEDFATYYCQQWSSNPLTFGCGTKVEIKSG
chain 2: not shown
notes: Trispecific tribody, a heterodimer; L chain derivative: VL(5T4)-CL-scFv(LAG3.1); also called 5T4xCD3xLAG3
B3: 53P tribody (other)
chain 1: QVQLVQSGAEVKKPGASVKVSCKASGYSFTSYYMHWVKQSPGQGLEWIGRINPNNGVTLYNQKFKDRVTMTRDTSISTAYMELSRLRSDDTAVYYCARSTMITNYVMDYWGQGTLVTVSSASTKGPSVFPLAPSSKSTSGGTAALGCLVKDYFPEPVTVSWNSGALTSGVHTFPAVLQSSGLYSLSSVVTVPSSSLGTQTYICNVNHKPSNTKVDKKVEPKSCDKTHTGPGGGSPGQVQLVQSGAELKKPGASVKVSCKASGYTFTRYTMHWVRQAPGQCLEWMGYINPSRGYTNYNQKFKDKATLTADKSTSTAYMELRSLRSDDTAVYYCARYYDDHYSLDYWGQGTLVTVSSASGGGGSGGGGSGGGGSAGDIQLTQSPSILSASVGDRVTITCRASSSVSYMNWYQQKPGKAPKRWIYDTSKVASGVPYRFSGSGSGTEYTLTISSMQPEDFATYYCQQWSSNPLTFGCGTKVEIKSG
chain 2: not shown
notes: also called 5T4xCD3xisotype control
B4: 53D tribody (other)
chain 1: QVQLVQSGAEVKKPGASVKVSCKASGYSFTSYYMHWVKQSPGQGLEWIGRINPNNGVTLYNQKFKDRVTMTRDTSISTAYMELSRLRSDDTAVYYCARSTMITNYVMDYWGQGTLVTVSSASTKGPSVFPLAPSSKSTSGGTAALGCLVKDYFPEPVTVSWNSGALTSGVHTFPAVLQSSGLYSLSSVVTVPSSSLGTQTYICNVNHKPSNTKVDKKVEPKSCDKTHTGPGGGSPGQVQLVQSGAELKKPGASVKVSCKASGYTFTRYTMHWVRQAPGQCLEWMGYINPSRGYTNYNQKFKDKATLTADKSTSTAYMELRSLRSDDTAVYYCARYYDDHYSLDYWGQGTLVTVSSASGGGGSGGGGSGGGGSAGDIQLTQSPSILSASVGDRVTITCRASSSVSYMNWYQQKPGKAPKRWIYDTSKVASGVPYRFSGSGSGTEYTLTISSMQPEDFATYYCQQWSSNPLTFGCGTKVEIKSG
chain 2: not shown
notes: Trispecific tribody, a heterodimer; H chain derivative: VH(5T4)-CH1-scFv(hOKT3); L chain derivative: VL(5T4)-CL-scFv(PD-1.1); also called 5T4xCD3xPD-1

Experiments:
[1] = biological target: T1, recombinant human 5T4 protein (5T4/His) (human, UniProt Q13641 32-355); assay: ELISA, immobilized recombinant human 5T4, 0-500 nM (N=2)
T1 construct: also called Human 5T4/His; recombinant 5T4; not shown: His tag of the bought protein
T1 sequence: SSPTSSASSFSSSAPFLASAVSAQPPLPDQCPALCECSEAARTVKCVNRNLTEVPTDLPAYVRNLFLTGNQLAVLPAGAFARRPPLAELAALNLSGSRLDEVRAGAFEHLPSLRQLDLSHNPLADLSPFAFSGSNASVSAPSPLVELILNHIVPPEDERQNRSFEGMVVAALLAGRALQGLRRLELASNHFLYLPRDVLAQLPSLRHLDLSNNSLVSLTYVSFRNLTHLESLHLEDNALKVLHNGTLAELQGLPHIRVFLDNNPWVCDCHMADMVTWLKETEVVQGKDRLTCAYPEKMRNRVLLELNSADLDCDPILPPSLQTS
Protocol: The binding affinity of purified 53L10-M13 to 5T4 antigen was examined by ELISA (FIG. 14). A recombinant human 5T4 protein (ACRO Biosystems) was immobilized in a 96-well plate using the same method as that performed in FIG. 2 (Example 1). […] The curve showing the binding affinity of 53L10-M13 to 5T4 overlapped with the curve showing the binding affinity of 53L10 (●) to 5T4. The EC₅₀ values were 0.58 nM for 53L10-M13 and 0.53 nM for 53L10 (FIG. 14B).

[2] = biological target: T2, 5T4 on 5T4-expressing CHO-K1 cells (UniProt Q13641 32-420); assay: cell-based or functional assay
T2 sequence (looked up): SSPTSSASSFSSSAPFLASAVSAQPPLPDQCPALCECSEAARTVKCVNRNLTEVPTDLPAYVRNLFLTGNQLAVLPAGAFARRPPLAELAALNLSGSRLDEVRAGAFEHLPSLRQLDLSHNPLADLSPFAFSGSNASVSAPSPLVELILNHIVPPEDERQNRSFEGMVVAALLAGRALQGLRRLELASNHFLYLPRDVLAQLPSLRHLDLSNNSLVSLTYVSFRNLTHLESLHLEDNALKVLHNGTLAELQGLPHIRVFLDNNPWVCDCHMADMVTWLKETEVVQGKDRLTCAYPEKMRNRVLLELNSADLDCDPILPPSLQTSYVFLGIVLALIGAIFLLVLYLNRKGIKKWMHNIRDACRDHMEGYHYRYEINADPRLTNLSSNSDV

[3] = biological target: T3, recombinant human PD-L1/Fc (human, UniProt Q9NZQ7 19-239, biotinylated in the competitive ELISA (sites not given)); assay: ELISA, immobilized recombinant human PD-L1/Fc, 0-500 nM (N=2)
T3 construct: Bought from R&D Systems; also called recombinant PD-L1 protein; biotinylated PD-L1 ligand; not shown: Fc part of the bought fusion
Protocol: The binding affinity of purified 53L10-M13 to recombinant PD-L1 protein was examined by ELISA (FIG. 16). A recombinant human PD-L1/Fc protein (R&D Biosystems) was immobilized in a 96-well plate using the same method as that performed in Example 4. According to the procedure described in “Materials and Methods” later, the binding assay of 53L10-M13 and 53L10 to human PD-L1 protein was performed at increasing concentrations (0-500 nM). […] The curve showing the binding affinity of 53L10-M13 to PD-L1 overlapped with the curve showing the binding affinity of 53L10 (●) to PD-L1.

[4] = biological target: T1, recombinant human 5T4 protein (5T4/His); assay: ELISA, immobilized recombinant human 5T4, tribody 0-500 nM
Protocol: A recombinant human 5T4 protein (AMSBio) was immobilized onto 96-well ELISA plates. The binding assay of Tb535H and purified novel tribodies was performed by testing at increasing concentrations (0-500 nM) were carried out according to the procedure described in Materials and Methods. […] The Tb535H has two 5T4 binding arms derived from Fab and scFv, and the novel 53X tribody constructed has a monovalent 5T4 binding arm derived from a single Fab.

[5] = biological target: T4, recombinant human PD-1/Fc (human, UniProt Q15116 25-167); assay: ELISA, immobilized recombinant human PD-1 (per the legend of FIG. 4B; the sentence prints PD-L1)
T4 construct: Bought from R&D Systems; also called recombinant PD-1 protein; immobilized PD-1 receptor; not shown: Fc part of the bought fusion
Text: To verify whether the novel tribodies including a binding arm to PD-L1 or PD-1 have a satisfactory binding affinity for their target recombinant proteins, we perfomed ELISA assays on immobilized PD-1 or PD-L1 proteins (FIG. 4).

T4 sequence (Q15116 25-167 limits assumed): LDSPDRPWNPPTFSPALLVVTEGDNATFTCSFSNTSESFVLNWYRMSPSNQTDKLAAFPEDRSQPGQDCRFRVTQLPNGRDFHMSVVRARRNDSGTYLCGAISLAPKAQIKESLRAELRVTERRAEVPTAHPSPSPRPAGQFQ
T3 sequence (Q9NZQ7 19-239 limits assumed): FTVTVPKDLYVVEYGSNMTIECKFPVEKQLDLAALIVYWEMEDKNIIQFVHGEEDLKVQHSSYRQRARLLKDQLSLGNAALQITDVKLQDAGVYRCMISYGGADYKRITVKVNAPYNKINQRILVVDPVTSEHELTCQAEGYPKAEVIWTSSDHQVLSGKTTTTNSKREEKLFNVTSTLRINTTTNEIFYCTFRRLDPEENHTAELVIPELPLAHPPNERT

Row | Binder | EC50 [1] | EC50 of luciferase activity, T cell activation bioassay (NFAT) with CHO-5T4 target cells [2] | EC50 [3] | binding result [4] | binding result [5]
1 | B1 | 0.58 nM | 0.016 nM | 36.9 nM |  | 
2 | B2 |  |  |  | binds | 
3 | B3 |  |  |  | binds | 
4 | B4 |  |  |  | binds | binds
